The text below walks through data of paper PMC3900769 (Journal of molecular biology, 2009).

Data set [1] deals with HPV11 E6 4C/4S separated from the MBP tag (human papillomavirus type 11) (UniProt P04019). Put plainly: SEC.
Data set [2] addresses HPV11 MBP-E6 4C/4S (human papillomavirus type 11) (UniProt P04019). The experiment in a line: SEC. (In gel filtration, larger molecules generally elute earlier.)
The target of data set [3] is E6AP peptide (Homo sapiens) (UniProt Q05086). Put plainly: SPR. To be noted: cited from earlier work.
The data set “SEC” concerns the molecule itself. Put plainly: SEC.

Several values for one entry are separate records, joined by “and”; a condition that tells them apart may be missing. Equal values may be shown once.

Usually stoichiometry N stands for the number of molecules, sites or subunits per partner or assembly. A word on the Kd: it is the concentration at which binding is half-saturated.

Chain of E6AP peptide (Homo sapiens) (Q05086 whole entry): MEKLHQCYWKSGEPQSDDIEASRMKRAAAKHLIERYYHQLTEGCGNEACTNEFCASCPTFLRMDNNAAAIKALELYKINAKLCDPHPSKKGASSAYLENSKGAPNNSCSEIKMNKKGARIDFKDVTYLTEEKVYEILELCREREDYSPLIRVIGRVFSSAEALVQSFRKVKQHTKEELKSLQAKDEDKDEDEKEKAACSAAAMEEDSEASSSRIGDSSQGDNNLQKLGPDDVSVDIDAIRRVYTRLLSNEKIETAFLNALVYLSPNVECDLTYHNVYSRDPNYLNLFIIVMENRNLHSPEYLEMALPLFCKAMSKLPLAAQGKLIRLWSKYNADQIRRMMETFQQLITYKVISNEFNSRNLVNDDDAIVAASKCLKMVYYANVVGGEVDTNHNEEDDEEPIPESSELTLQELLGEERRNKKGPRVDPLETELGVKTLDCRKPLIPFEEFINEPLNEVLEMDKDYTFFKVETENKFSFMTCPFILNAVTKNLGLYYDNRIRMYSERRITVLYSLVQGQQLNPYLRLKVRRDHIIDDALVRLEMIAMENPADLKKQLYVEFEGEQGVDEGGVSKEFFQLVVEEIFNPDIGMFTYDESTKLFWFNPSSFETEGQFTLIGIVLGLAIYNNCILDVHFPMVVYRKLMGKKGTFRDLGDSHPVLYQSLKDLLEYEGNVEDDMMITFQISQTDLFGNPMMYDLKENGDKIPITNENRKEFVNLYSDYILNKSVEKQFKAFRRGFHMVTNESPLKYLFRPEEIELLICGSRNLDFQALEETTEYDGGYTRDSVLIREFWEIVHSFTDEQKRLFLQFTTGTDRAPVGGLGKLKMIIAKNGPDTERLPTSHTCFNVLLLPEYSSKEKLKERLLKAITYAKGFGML

For “HPV11 E6 4C/4S separated from the MBP tag (from UniProt P04019 1-150) (natural protein)”, the stoichiometry N in data set [1] is 3 and 2.

Turning to “HPV11 MBP-E6 4C/4S (from UniProt P04019 1-150) (natural protein)”, the stoichiometry N in data set [2] is 2 and 3.

With HPV18 E6 (from UniProt P06463), in data set [3], the Kd is 30 µM.

B1: wild-type HPV11 MBP-E6 (natural protein)
chain: MESKDASTSATSIDQLCKTFNLSLHTLQIQCVFCRNALTTAEIYAYAYKNLKVVWRDNFPFAACACCLELQGKINQYRHFNYAAYAPTVEEETNEDILKVLIRCYLCHKPLCEIEKLKHILGKARFIKLNNQWKGRCLHCWTTCMEDLLP
For the molecule B1, the “stoichiometry N” value in the data set “SEC” was 2.

B2: wild-type BPV1 MBP-E6 (natural protein)
chain: MDLKPFARTNPFSGLDCLWCREPLTEVDAFRCMVKDFHVVIREGCRYGACTICLENCLATERRLWQGVPVTGEEAELLHGKTLDRLCIRCCYCGGKLTKNEKHRHVLFNEPFCKTRANIIRGRCYDCCRHGSRSKYP
As for B2, in the data set “SEC”, the binding result was “binds”.
